# How the values were obtained:
# [1] = molecular target: GFP-OhyA (green fluorescent protein-oleate hydratase chimeric protein) (Staphylococcus aureus); assay: SEC-MALS; Superose 6 Increase 10/300 GL; 20 mM Tris, 200 mM NaCl, pH 7.6; 100 uL of GFP-OhyA (2 mg/mL) injected at 0.5 mL/min, 25 °C
# [2] = molecular target: T1, GFP-OhyA (Staphylococcus aureus, UniProt Q2G1P3, M1A); assay: biochemical
# T1 construct: gene SAOUHSC_00061
compound,measurement,setting,value
GFP-OhyA (green fluorescent protein-oleate hydratase chimeric protein) (enzyme),percent dimer,[1],80.6%
same,stoichiometry N,[1],2
CCCCCCCC/C=C\CCCCCCCC(=O)OC[C@H](COP(=O)(O)OCC(O)CO)OC(=O)CCCCCCC/C=C\CCCCCCCC (stereo partly drawn) [DOPG],Kd,[2],79.9 nM

# From paper PMC11751051 (Frontiers in Molecular Biosciences, 2025)
